Reference: publication PMC13071878, “Yeast Display Technology Enables Rapid Discovery of Low-Nanomolar Macrocyclic Peptide Inhibitors of Human Angiotensin-Converting Enzyme 2” (Journal of Medicinal Chemistry, 2026)

Columns and labels:
[1] = biological target: extracellular catalytic domain of human angiotensin-converting enzyme 2 (hACE2), produced in mammalian cells (human) (UniProt Q9BYF1); assay: enzyme inhibition assay
[2] = biological target: human angiotensin-converting enzyme 1 (hACE1) (human) (UniProt P12821); assay: enzyme inhibition assay
human angiotensin-converting enzyme 1 (hACE1) (human), sequence (P12821 30-1256): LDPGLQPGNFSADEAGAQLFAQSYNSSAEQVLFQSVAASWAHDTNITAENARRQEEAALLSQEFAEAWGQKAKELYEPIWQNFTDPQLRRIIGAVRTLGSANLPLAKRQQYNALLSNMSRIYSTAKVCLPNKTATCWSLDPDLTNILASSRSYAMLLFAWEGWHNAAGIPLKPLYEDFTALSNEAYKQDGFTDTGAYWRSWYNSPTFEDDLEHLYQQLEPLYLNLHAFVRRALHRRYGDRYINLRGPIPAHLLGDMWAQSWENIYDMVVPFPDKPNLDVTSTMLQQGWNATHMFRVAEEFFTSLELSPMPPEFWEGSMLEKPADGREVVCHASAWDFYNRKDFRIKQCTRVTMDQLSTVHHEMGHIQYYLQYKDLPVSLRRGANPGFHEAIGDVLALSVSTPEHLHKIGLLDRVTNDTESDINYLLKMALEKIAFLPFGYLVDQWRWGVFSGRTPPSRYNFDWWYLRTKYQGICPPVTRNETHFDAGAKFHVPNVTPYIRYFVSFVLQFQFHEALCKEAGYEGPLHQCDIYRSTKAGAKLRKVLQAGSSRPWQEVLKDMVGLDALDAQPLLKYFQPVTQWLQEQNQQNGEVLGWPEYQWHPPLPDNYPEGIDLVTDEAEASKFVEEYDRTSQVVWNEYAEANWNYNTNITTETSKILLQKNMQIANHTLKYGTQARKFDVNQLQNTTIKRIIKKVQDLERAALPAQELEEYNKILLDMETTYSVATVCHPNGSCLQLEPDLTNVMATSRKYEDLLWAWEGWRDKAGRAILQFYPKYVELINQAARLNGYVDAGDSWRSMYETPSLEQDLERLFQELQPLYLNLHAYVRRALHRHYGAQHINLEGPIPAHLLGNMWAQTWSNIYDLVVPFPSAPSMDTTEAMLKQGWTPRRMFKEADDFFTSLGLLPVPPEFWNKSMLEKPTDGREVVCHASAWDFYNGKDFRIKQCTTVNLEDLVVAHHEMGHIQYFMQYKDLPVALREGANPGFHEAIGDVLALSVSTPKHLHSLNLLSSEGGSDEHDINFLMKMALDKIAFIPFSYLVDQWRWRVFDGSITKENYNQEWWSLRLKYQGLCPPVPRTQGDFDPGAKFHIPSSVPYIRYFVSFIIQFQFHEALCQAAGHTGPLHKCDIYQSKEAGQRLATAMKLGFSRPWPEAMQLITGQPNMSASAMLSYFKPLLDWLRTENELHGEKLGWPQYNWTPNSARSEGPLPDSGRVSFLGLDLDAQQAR

extracellular catalytic domain of human angiotensin-converting enzyme 2 (hACE2), produced in mammalian cells (human), sequence (Q9BYF1 19-615): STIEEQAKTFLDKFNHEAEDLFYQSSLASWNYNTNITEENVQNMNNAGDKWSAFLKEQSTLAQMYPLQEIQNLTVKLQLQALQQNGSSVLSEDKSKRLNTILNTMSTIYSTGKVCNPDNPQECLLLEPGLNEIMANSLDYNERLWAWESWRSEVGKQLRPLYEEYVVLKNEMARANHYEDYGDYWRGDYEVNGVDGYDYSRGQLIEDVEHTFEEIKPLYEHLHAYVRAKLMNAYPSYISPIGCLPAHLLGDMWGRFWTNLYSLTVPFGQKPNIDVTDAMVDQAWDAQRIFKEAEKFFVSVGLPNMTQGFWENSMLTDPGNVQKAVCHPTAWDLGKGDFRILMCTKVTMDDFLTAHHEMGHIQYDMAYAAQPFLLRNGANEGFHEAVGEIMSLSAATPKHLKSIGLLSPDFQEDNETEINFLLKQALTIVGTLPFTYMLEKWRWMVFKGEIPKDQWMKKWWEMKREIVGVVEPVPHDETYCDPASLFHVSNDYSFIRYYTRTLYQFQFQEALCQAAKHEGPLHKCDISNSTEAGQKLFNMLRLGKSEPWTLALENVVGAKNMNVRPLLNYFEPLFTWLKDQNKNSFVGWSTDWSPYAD

Substance: A0773, commercially available inhibitor (peptide)
- IC50 [1]: > 30000 nM
- Ki [1]: > 30000 nM
- IC50 [2]: 212 nM
- Ki [2]: 53 nM
